# In patent US20230002480A1:
# Tests used:
# Experiment in all cases: cell-based or functional assay
# [1] = target: HIV-1 Env of pseudovirus P0402_c2_11 (clade G) (HIV-1)
# [2] = target: HIV-1 Env of pseudovirus 211-9 (clade CRF02_AG) (HIV-1)
# [3] = target: HIV-1 Env of pseudovirus BJOX010000.06.2 (clade CRF01_AE (T/F)) (HIV-1)
# [4] = target: HIV-1 Env of pseudovirus R3265.c06 (clade CRF01_AE) (HIV-1)
# [5] = target: HIV-1 Env of pseudovirus BJOX009000.02.4 (clade CRF01_AE) (HIV-1)
# [6] = target: HIV-1 Env of pseudovirus X1193_c1 (clade G) (HIV-1)
# [7] = target: HIV-1 Env of pseudovirus C2101.c01 (clade CRF01_AE) (HIV-1)
# [8] = target: HIV-1 Env of pseudovirus CNE5 (clade CRF01_AE) (HIV-1)
# [9] = target: HIV-1 Env of pseudovirus CNE17 (clade BC) (HIV-1)
# [10] = target: HIV-1 Env of pseudovirus CAAN5342.A2 (clade B) (HIV-1)
# [11] = target: HIV-1 Env of pseudovirus CNE30 (clade BC) (HIV-1)
# [12] = target: HIV-1 Env of pseudovirus 1054_07_TC4_1499 (clade B (T/F)) (HIV-1)
# [13] = target: HIV-1 Env of pseudovirus 6535.3 (clade B) (HIV-1)
# [14] = target: HIV-1 Env of pseudovirus Ce0393_C3 (clade C (T/F)) (HIV-1)
# [15] = target: HIV-1 Env of pseudovirus ZM249M.PL1 (clade C) (HIV-1)
# [16] = target: HIV-1 Env of pseudovirus CAP210.2.00.E8 (clade C) (HIV-1)
# [17] = target: HIV-1 Env of pseudovirus 6244_13_B5_4576 (clade B (T/F)) (HIV-1)
# [18] = target: HIV-1 Env of pseudovirus CNE52 (clade BC) (HIV-1)
# [19] = target: HIV-1 Env of pseudovirus HIV-0013095-2.11 (clade C) (HIV-1)
# [20] = target: HIV-1 Env of pseudovirus 1012_11_TC21_3257 (clade B (T/F)) (HIV-1)
# [21] = target: HIV-1 Env of pseudovirus Q769.d22 (clade A) (HIV-1)
# [22] = target: HIV-1 Env of pseudovirus RHPA4259.7 (clade B) (HIV-1)
# [23] = target: HIV-1 Env pseudovirus 3103.v3.c10 (HIV-1)
# [24] = target: HIV-1 Env pseudovirus T257-31 (HIV-1)
# [25] = target: HIV-1 Env pseudovirus CNE8 (HIV-1)
# [26] = target: HIV-1 Env pseudovirus T255-34 (HIV-1)
# [27] = target: HIV-1 Env pseudovirus 263-8 (HIV-1)
# [28] = target: HIV-1 Env pseudovirus 3365.v2.c2 (HIV-1)
# [29] = target: HIV-1 Env pseudovirus BJOX028000.10.3 (HIV-1)
# [30] = target: HIV-1 Env pseudovirus P0402_c2_11 (HIV-1)
# [31] = target: HIV-1 Env pseudovirus 6480.v4.c25 (HIV-1)
# [32] = target: HIV-1 Env pseudovirus 6545.v4.c1 (HIV-1)
substance,measurement,setting,value
PG9 (antibody),"IC50, titer in TZM.bl cells",[1],0.296 µg/mL
same,"IC80, titer in TZM.bl cells",[1],2.37 µg/mL
same,"IC50, titer in TZM.bl cells",[2],0.049 µg/mL
same,"IC80, titer in TZM.bl cells",[2],0.243 µg/mL
same,"IC50, titer in TZM.bl cells",[3],0.154 µg/mL
same,"IC80, titer in TZM.bl cells",[3],0.74 µg/mL
same,"IC50, titer in TZM.bl cells",[4],0.163 µg/mL
same,"IC80, titer in TZM.bl cells",[4],0.535 µg/mL
same,"IC50, titer in TZM.bl cells",[5],1.73 µg/mL
same,"IC80, titer in TZM.bl cells",[5],8.21 µg/mL
same,"IC50, titer in TZM.bl cells",[6],0.105 µg/mL
same,"IC80, titer in TZM.bl cells",[6],0.304 µg/mL
same,"IC50, titer in TZM.bl cells",[7],0.034 µg/mL
same,"IC80, titer in TZM.bl cells",[7],0.099 µg/mL
same,"IC50, titer in TZM.bl cells",[8],0.018 µg/mL
same,"IC80, titer in TZM.bl cells",[8],0.051 µg/mL
N49P18.1 (antibody),IC50,[9],39.7 µg/mL
same,IC80,[9],> 50 µg/mL
same,MPI,[9],56
same,IC50,[10],16.1 µg/mL
same,IC80,[10],49.1 µg/mL
same,MPI,[10],83
same,IC50,[11],13.1 µg/mL
same,IC80,[11],32.2 µg/mL
same,MPI,[11],93
same,IC50,[12],> 50 µg/mL
same,IC80,[12],> 50 µg/mL
same,MPI,[12],0
same,IC50,[13],2.06 µg/mL
same,IC80,[13],11.4 µg/mL
same,MPI,[13],100
same,IC50,[14],10.3 µg/mL
same,IC80,[14],24.8 µg/mL
same,MPI,[14],92
same,IC50,[15],4.16 µg/mL
same,IC80,[15],19.8 µg/mL
same,MPI,[15],98
same,IC50,[16],> 50 µg/mL
same,IC80,[16],> 50 µg/mL
same,MPI,[16],11
same,IC50,[17],33.4 µg/mL
same,IC80,[17],> 50 µg/mL
same,MPI,[17],61
same,IC50,[18],2.46 µg/mL
same,IC80,[18],6.65 µg/mL
same,MPI,[18],100
same,IC50,[19],> 50 µg/mL
same,IC80,[19],> 50 µg/mL
same,MPI,[19],48
same,IC50,[20],16.1 µg/mL
same,IC80,[20],> 50 µg/mL
same,MPI,[20],79
same,IC50,[21],4.92 µg/mL
same,IC80,[21],18.3 µg/mL
same,MPI,[21],97
same,IC50,[22],4.34 µg/mL
same,IC80,[22],21.4 µg/mL
same,MPI,[22],98
10-1074 (antibody),"IC50, titer in TZM.bl cells",[1],0.012 µg/mL
same,"IC80, titer in TZM.bl cells",[1],0.039 µg/mL
same,"IC50, titer in TZM.bl cells",[2],0.112 µg/mL
same,"IC80, titer in TZM.bl cells",[2],0.425 µg/mL
same,"IC50, titer in TZM.bl cells",[3],> 50 µg/mL
same,"IC80, titer in TZM.bl cells",[3],> 50 µg/mL
same,"IC50, titer in TZM.bl cells",[5],> 50 µg/mL
same,"IC80, titer in TZM.bl cells",[5],> 50 µg/mL
same,"IC50, titer in TZM.bl cells",[6],0.083 µg/mL
same,"IC80, titer in TZM.bl cells",[6],0.475 µg/mL
same,"IC50, titer in TZM.bl cells",[7],> 50 µg/mL
same,"IC80, titer in TZM.bl cells",[7],> 50 µg/mL
same,"IC50, titer in TZM.bl cells",[8],> 50 µg/mL
same,"IC80, titer in TZM.bl cells",[8],> 50 µg/mL
N49P9 (antibody),IC50,[23],17.6 µg/mL
same,IC80,[23],> 50 µg/mL
same,MPI,[23],55
same,IC50,[24],0.216 µg/mL
same,IC80,[24],0.821 µg/mL
same,MPI,[24],100
same,IC50,[25],0.056 µg/mL
same,IC80,[25],0.26 µg/mL
same,MPI,[25],100
same,IC50,[26],0.051 µg/mL
same,IC80,[26],0.247 µg/mL
same,MPI,[26],100
same,IC50,[27],0.032 µg/mL
same,IC80,[27],0.161 µg/mL
same,MPI,[27],100
same,IC50,[28],0.059 µg/mL
same,IC80,[28],0.198 µg/mL
same,MPI,[28],100
same,IC50,[29],0.031 µg/mL
same,IC80,[29],0.134 µg/mL
same,MPI,[29],100
same,IC50,[30],0.028 µg/mL
same,IC80,[30],0.085 µg/mL
same,MPI,[30],100
same,IC50,[31],0.017 µg/mL
same,IC80,[31],0.047 µg/mL
same,MPI,[31],100
same,IC50,[32],> 50 µg/mL
same,IC80,[32],> 50 µg/mL
same,MPI,[32],20
PG16 (antibody),"IC50, titer in TZM.bl cells",[1],0.025 µg/mL
same,"IC80, titer in TZM.bl cells",[1],0.411 µg/mL
same,"IC50, titer in TZM.bl cells",[2],0.029 µg/mL
same,"IC80, titer in TZM.bl cells",[2],0.144 µg/mL
same,"IC50, titer in TZM.bl cells",[3],1.2 µg/mL
same,"IC80, titer in TZM.bl cells",[3],> 50 µg/mL
same,"IC50, titer in TZM.bl cells",[4],0.016 µg/mL
same,"IC80, titer in TZM.bl cells",[4],0.146 µg/mL
same,"IC50, titer in TZM.bl cells",[5],1.19 µg/mL
same,"IC80, titer in TZM.bl cells",[5],22.1 µg/mL
same,"IC50, titer in TZM.bl cells",[6],0.018 µg/mL
same,"IC80, titer in TZM.bl cells",[6],0.11 µg/mL
same,"IC50, titer in TZM.bl cells",[7],0.012 µg/mL
same,"IC80, titer in TZM.bl cells",[7],0.238 µg/mL
same,"IC50, titer in TZM.bl cells",[8],0.008 µg/mL
same,"IC80, titer in TZM.bl cells",[8],0.033 µg/mL
